Measured values as given in patent US20260022165A1 (US Dept. of Health and Human Services, published 2026).
Where a chain is given by its changes, count along the chain named.

B1: Ab1 Fab (His-tagged rabbit/human chimeric anti-C3d Fab) (Fab, V domains shown)
VH: QSVEESRGRLVTPGTPLTLTCTVSGIDLSSSAITWVRQAPGKGLEWIGMISTDGATYYANWAKGRFTFSKTSTTADLKITSPTTEDTATYFCARGLTNFSIWGPGTLVTVSS
VL: QPVLTQSPSASAALGASAKLTCTLSSAHKTYTIAWYQQQPGESPRYLMLLKSDGSYTRGPGVPDRFSGSSSGADRYLIIPSVQADDEAGYYCGADYNGGYVFGGGTQLTVTG
notes: Fab from the phage display vector pC3C with rabbit Vλ/human Cλ/rabbit VH, His-tagged; also called Ab1 (λ)
B2: Ab2 Fab (His-tagged rabbit/human chimeric anti-C3d Fab) (Fab, V domains shown)
VH: QSVEESGGRLVTPGTPLTLTCTVSGFSLSSYAMTWVRQAPGKGLEWIGVIGTSGMRYYANWAKGRFTISKTSTTVDLKITSPTTEDTATYFCARANFYVGNDESTDAFDPWGPGTLVTVSS
VL: ALVMTQTPPSLSASVGETVRIRCLASEDIYNTISWYQQKPGKPPTLLIYGASNLKSGVPPRFSGSGSGTDYTLTIGGVQSEDAATYYCLGGYSYSSTGLTFGAGTKVEIK
notes: Fab with rabbit Vκ/human Cκ/rabbit VH, His-tagged; also called Ab2 (κ)
B3: Ab5 Fab (His-tagged rabbit/human chimeric anti-C3d Fab) (Fab, V domains shown)
VH: QSLEESGGRLVTPGTPLTLTCTVSGFSLSTYTLGWVRQAPGKGLEYIGWIDSSGSAYYASWAKGRFTISKASSTTVDLKMAGLTTEDTATYFCASGNTGGDPLYYGMDPWGPGTLVTVSS
VL: DPVLTQTPSSTSAAVGGTVTIKCQASQNIGRWLAWYQQKPGQPPKLLIYRASDLASGVPSRFKGSGSGTQFTLTISGVQREDAATYYCLGSYSSSDSAFGGGTEVVVK
notes: Fab with rabbit Vκ/human Cκ/rabbit VH, His-tagged; also called Ab5 (κ)
B4: Ab4 Fab (His-tagged rabbit/human chimeric anti-C3d Fab) (Fab, V domains shown)
VH: B3 VH with T30R, L33M, G34A, A56T, A71T, A81T, G82S, T98D
VL: DGVMTQTPSSTSAAVGGTVTIKCQASQSIRSWLSWYQQKPGQPPKLLIYEASKLASGVPSRFKGSRSGTEYTLAISGVQREDAATYYCLGSIASDDTAFGAGTNVEIK
notes: Fab with rabbit Vκ/human Cκ/rabbit VH, His-tagged; also called Ab4 (κ)
B5: Ab3 Fab (His-tagged rabbit/human chimeric anti-C3d Fab) (Fab, V domains shown)
VH: QKQLVESGGRLVTPGGSLTLTCTISGIDLNTYGMTWVRQAPGKGLEYIGIIVSSGNTYYANWAQGRFTISKTSTTVDLKMTSLTASDTATYFCARGLGRAYSSGYGMDGWGPGTLVTVSS
VL: DPVLTQTPSSTSAAVGGTVTIKCQASQNIYTSLAWYQQKPGQPPKLLIYGASNLASGVPSRFKGSRSGTEYTLTISGVEREDAATYYCLGSYTQIDTTFGGGTKLEIK
notes: Fab with rabbit Vκ/human Cκ/rabbit VH, His-tagged; also called Ab3 (κ)

Biological target: T1, human complement protein C3d (human, UniProt P01024 1002-1303)
T1 construct: domain: C3d; the 30 min deposits on zymosan are a mixture of C3b/iC3b/C3d that the text calls C3d; also called hC3d; human C3d
Assay: flow cytometry; His-tagged Fab on zymosan particles opsonized with human serum (C3b/iC3b/C3d); detection AF488 mouse anti-His mAb
Description: (§2) C3-opsonized zymosan particles (1e6) were incubated with 100 μL of 1 ug/mL His-tagged Fabs in a 96-well V-bottom plate at 37° C. for 1 h. After three washes with PBST (0.05% v/v Tween 20 in PBS), 100 μL of mouse anti-His tag mAb conjugated to horse radish peroxidase (HRP) (R&D Systems, Minneapolis, MN) at 1:1000 dilution in 1% (w/v) BSA/DPBS was added to detect bound Fabs using 2,2′-azino-bis (3-ethylbenzthiazoline)-6-sulfonic acid (Roche/Milipore Sigma, St. Louis, MO) as substrate. The absorbance was measured at 405 nm using a SpectraMax M5 microplate reader and SoftMax Pro software (Molecular Devices, LLC, San Jose, CA). To test for the potential of C3 in NHS to block binding of the mAbs to C3-fragment opsonized zymosan, serial dilutions of NHS were premixed with the opsonized zymosan particles prior to addition of his-tagged Fabs and following the procedure described above.
The binding of rabbit antibodies (Fabs) was detected by flow cytometry following the same procedure described above except using a mouse anti-His tag mAb conjugated to AF488 (Qiagen, Valencia, CA).

B1: binds.

Biological target: T2, full length human C3 present in plasma (human, UniProt P01024 23-1663)
T2 construct: mature; Not purified: it stood in the assay as dilutions of normal human serum; also called full-length, soluble C3; C3 in NHS
Assay: ELISA, competition; His-tagged Fab (1 ug/mL) on zymosan opsonized with human C3 fragments in the presence of normal human serum (printed PNHCS) at 1/10, 1/50, 1/250 as source of full-length C3; normalized to media without serum
Description: Zymosan particles opsonized with human C3 fragments were suspended in media with indicated dilutions of NHS (1/10, 1/50 and 1/250) prior to addition of His-tagged anti-C3d Fab antibodies at 1 μg/mL. Mouse anti-His mAb conjugated with HRP was used to determine the binding signal of each Fab by ELISA. Data is normalized to media control containing no NHS.
as §2

B1: no binding (tested: serum dilution 1/10).

Biological target: T3, hFc-mC3d fusion protein (human; mouse, UniProt P01027 1002-1303, limits assumed)
T3 construct: domain: C3d; not shown: human IgG Fc (hFc), captured by an anti-human IgG CH2 mAb
Assay: SPR (Biacore X100), Fab over captured hFc-mC3d
Description: (§1) Kinetic and thermodynamic parameters characterizing the binding of purified Fabs to hC3d or mC3d was performed by surface plasmon resonance (SPR) in a Biacore X100 instrument (GE Healthcare). Using mouse anti-human IgG CH2 mAb immobilized on a CM5 sensor chip, hFc-hC3d or hFc-mC3d fusion proteins were captured at a density <400 RU. Each sensor chip included an empty flow cell for instantaneous background subtraction. All binding assays used 1×HBS-EP+ running buffer (10 mM HEPES, 150 mM NaCl, 3 mM EDTA (pH 7.4), and 0.05% (v/v) Surfactant P20) at a flow rate of 30 μL/min. […] Calculation of association (kₒₙ) and dissociation (koff) rate constants were based on a 1:1 Langmuir binding model. The equilibrium dissociation constant (KD) was obtained by the formula KD=koff/kₒₙ.

T3 sequence (P01027 1002-1303 limits assumed): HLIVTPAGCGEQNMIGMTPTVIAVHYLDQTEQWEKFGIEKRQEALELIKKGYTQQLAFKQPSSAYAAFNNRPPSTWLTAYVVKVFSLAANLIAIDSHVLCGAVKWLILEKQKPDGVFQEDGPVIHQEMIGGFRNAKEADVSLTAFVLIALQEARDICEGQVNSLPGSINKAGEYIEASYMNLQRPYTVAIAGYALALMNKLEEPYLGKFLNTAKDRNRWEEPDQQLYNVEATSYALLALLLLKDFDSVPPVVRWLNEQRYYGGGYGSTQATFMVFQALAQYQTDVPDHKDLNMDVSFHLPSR

Going from B2 to B3, the Kd rises from 9.04 nM to 22.9 nM (2.5-fold). The first binds more tightly here.

B4 and B5 are within 1.5-fold of each other in Kd: 132 nM for the first, 97.6 nM for the second.

Going from B2 to B3, the koff rises from 0.00174 s⁻¹ to 0.00568 s⁻¹ (3.3-fold).

Going from B4 to B5, the koff rises from 0.00801 s⁻¹ to 0.0227 s⁻¹ (2.8-fold).

B2 and B3 are within 1.5-fold of each other in kon: 193000 M⁻¹ s⁻¹ for the first, 248000 M⁻¹ s⁻¹ for the second.

First: B4
Second: B5
The kon of the first is 3.8-fold lower: 60600 M⁻¹ s⁻¹ for the first, 232000 M⁻¹ s⁻¹ for the second.

Biological target: T4, hFc-hC3d fusion protein (human, UniProt P01024 1002-1303, limits assumed)
T4 construct: domain: C3d; also called immobilized hC3d; not shown: human IgG Fc (hFc), captured by an anti-human IgG CH2 / Fcγ mAb
Assay: SPR (Biacore X100), Fab over captured hFc-hC3d
Description: as §1

Going from B2 to B3, the Kd falls from 3.35 nM to 0.99 nM (3.4-fold). The second binds more tightly here.

Compared with B4, B5 is 4.3-fold higher in Kd: 3.1 nM for the first, 13.3 nM for the second. The first binds more tightly here.

First: B2
Second: B3
The koff of the first is 3.9-fold higher: 0.00054 s⁻¹ for the first, 0.00014 s⁻¹ for the second.

Going from B4 to B5, the koff rises from 0.00028 s⁻¹ to 0.00126 s⁻¹ (4.5-fold).

B2 and B3 are within 1.5-fold of each other in kon: 162000 M⁻¹ s⁻¹ for the first, 141000 M⁻¹ s⁻¹ for the second.

B4 and B5 are within 1.5-fold of each other in kon: 90900 M⁻¹ s⁻¹ for the first, 94600 M⁻¹ s⁻¹ for the second.
